Target: Fragment F109–221 of GvpF, split-GFP fusion (Halobacterium salinarum)
Assay: split reporter (BiFC, NanoBiT); split-GFP (mGFP2) in Hfx. volcanii transformants, entire Gvp proteins and fragments (Figure 7); arrangement of the GFP portions not stated; relative fluorescence (rf) of cells against untransformed WR340

Row | relative fluorescence (rf) | Binder
1 | < 4 | MAQPDSSGLAEVLDRVLDKGVV [Fragment A1–22 of GvpA, split-GFP fusion]
2 | < 4 | GvpA, entire protein, split-GFP fusion (natural protein) MAQPDSSGLAEVLDRVLDKGVVVDVWARVSLVGIEILTVEARVVAASVDTFLHYAEEIAKIEQAELTAGAEAAPEA
